Reference: the supplement of paper PMC10724198
± gives the standard deviation of the averaged measurements.

Experiments:
Saccharomyces cerevisiae [1] = assay: protein stability index of tFT-peptide fusion (C-terminal peptide) (PSI (0-1 scale)); higher = more stable (slower turnover); settings: genetic background: wild type; temperature: 30 C
Saccharomyces cerevisiae [2] = assay: as above
Experimental: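 MPS profiling in S. cerevisiae of the tFT-X12 degron library: putative degron peptides plus stable controls, 12 aa, fused to the C-terminus of a sfGFP-mCherry timer. Cells are FACS-sorted into 8 mCherry/sfGFP bins and deep-sequenced. PSI runs from 0 (unstable) to 1 (stable). Backgrounds are wild type, das1Δ and doa10Δ at 30 °C, and wild type, das1Δ, cdc34-1 and cdc53-1 at 37 °C; 2-3 technical replicates each.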

[3] = genetic background: cdc34-1, temperature: 37 C
[4] = genetic background: cdc53-1, temperature: 37 C
[5] = genetic background: das1 deletion, temperature: 30 C
[6] = genetic background: das1 deletion, temperature: 37 C
[7] = genetic background: doa10 deletion, temperature: 30 C
[8] = genetic background: wild type, temperature: 30 C
[9] = genetic background: wild type, temperature: 37 C
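Note: PSI is a weighted mean of sequencing reads over stability bins, variants kept only with over 10 reads, mCherry proximal and sfGFP distal, peptide attached via GGGS linker.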

| Sequence | protein stability index (Saccharomyces cerevisiae [1]) | protein stability index (Saccharomyces cerevisiae [2]; [3]) | protein stability index (Saccharomyces cerevisiae [2]; [4]) | protein stability index (Saccharomyces cerevisiae [2]; [5]) | protein stability index (Saccharomyces cerevisiae [2]; [6]) | protein stability index (Saccharomyces cerevisiae [2]; [7]) | protein stability index (Saccharomyces cerevisiae [2]; [8]) | protein stability index (Saccharomyces cerevisiae [2]; [9]) |
| --- | --- | --- | --- | --- | --- | --- | --- | --- |
| SNFDVRRLLVIQ | 0.455 ± 0.033 | 0.616 ± 0.073 | 0.702 ± 0.038 | 0.588 ± 0.021 | 0.697 ± 0.0065 | 0.29 ± 0.0061 | 0.329 ± 0.039 | 0.54 ± 0.014 |
| SPSTPQALSNFS | 0.715 ± 0.038 | 0.679 ± 0.0097 | 0.748 ± 0.015 | 0.657 ± 0.032 | 0.7376 ± 0.0054 | 0.664 ± 0.022 | 0.663 ± 0.025 | 0.715 ± 0.027 |
| SPTIFLPLFLTS | 0.376 ± 0.037 | 0.426 ± 0.026 | 0.415 ± 0.014 | 0.397 ± 0.028 | 0.522 ± 0.016 | 0.621 ± 0.016 | 0.4 ± 0.029 | 0.468 ± 0.0067 |
| SRARIRLPRILS | 0.333 ± 0.024 | 0.648 ± 0.033 | 0.71 ± 0.0083 | 0.661 ± 0.026 | 0.72403 ± 0.00037 | 0.208 ± 0.0047 | 0.225 ± 0.052 | 0.494 ± 0.015 |
| SSLTFTFAILLY | 0.339 ± 0.011 | 0.19 ± 0.026 | 0.188 ± 0.011 | 0.207 ± 0.025 | 0.339 ± 0.015 | 0.369 ± 0.018 | 0.219 ± 0.025 | 0.312 ± 0.052 |
| STLPACNCLKLL | 0.426 ± 0.069 | 0.663 ± 0.015 | 0.7607 ± 0.0055 | 0.622 ± 0.011 | 0.741 ± 0.013 | 0.332 ± 0.015 | 0.371 ± 0.03 | 0.565 ± 0.015 |
| STNMDNRIRTLA | 0.431 ± 0.0013 | 0.659 ± 0.011 | 0.714 ± 0.012 | 0.638 ± 0.031 | 0.72 ± 0.013 | 0.311 ± 0.0059 | 0.356 ± 0.023 | 0.556 ± 0.017 |
| SVIVSSFFLWVF | 0.288 ± 0.019 | 0.381 ± 0.051 | 0.454 ± 0.035 | 0.298 ± 0.03 | 0.482 ± 0.0072 | 0.2026 ± 0.00069 | 0.223 ± 0.029 | 0.426 ± 0.016 |
| SVLVWFLVFLVW | 0.315 ± 0.012 | 0.209 ± 0.0046 | 0.235 ± 0.02 | 0.223 ± 0.028 | 0.3733 ± 0.0037 | 0.218 ± 0.019 | 0.211 ± 0.026 | 0.321 ± 0.042 |
| SVVYCRMRVHFV | 0.285 ± 0.0052 | 0.403 ± 0.024 | 0.487 ± 0.046 | 0.373 ± 0.015 | 0.432 ± 0.014 | 0.263 ± 0.01 | 0.285 ± 0.02 | 0.3786 ± 0.0025 |
| SWGEQDRLTGYI | 0.7195 ± 0.0031 | 0.715 ± 0.029 | 0.77 ± 0.02 | 0.689 ± 0.024 | 0.787 ± 0.0083 | 0.669 ± 0.018 | 0.674 ± 0.026 | 0.712 ± 0.023 |
| SWMFKLCIQWNV | 0.467 ± 0.012 | 0.5147 ± 0.0019 | 0.567 ± 0.023 | 0.502 ± 0.011 | 0.5321 ± 0.00098 | 0.467 ± 0.029 | 0.456 ± 0.013 | 0.49 ± 0.019 |
| SWSLRLSTIFSV | 0.367 ± 0.0041 | 0.609 ± 0.11 | 0.664 ± 0.016 | 0.612 ± 0.025 | 0.667 ± 0.0072 | 0.189 ± 0.0053 | 0.219 ± 0.018 | 0.352 ± 0.022 |
| SYFASLLDLFTA | 0.598 ± 0.16 | 0.727 ± 0.062 | 0.77 ± 0.0079 | 0.66 ± 0.011 | 0.766 ± 0.018 | 0.669 ± 0.018 | 0.674 ± 0.012 | 0.759 ± 0.021 |
| TDSSWEVSLMVG | 0.374 ± 0.053 | 0.679 ± 0.051 | 0.747 ± 0.036 | 0.612 ± 0.012 | 0.733 ± 0.016 | 0.605 ± 0.023 | 0.6186 ± 0.0039 | 0.741 ± 0.026 |
| TDVLLLQLLISV | 0.311 ± 0.012 | 0.202 ± 0.021 | 0.228 ± 0.059 | 0.225 ± 0.028 | 0.338 ± 0.018 | 0.184 ± 0.007 | 0.219 ± 0.032 | 0.316 ± 0.0075 |
| TGPLVHLLCCCV | 0.421 ± 0.011 | 0.354 ± 0.011 | 0.417 ± 0.011 | 0.313 ± 0.028 | 0.3955 ± 0.0013 | 0.284 ± 0.0075 | 0.315 ± 0.019 | 0.386 ± 0.0074 |
| TKKGQTRPSRTD | 0.575 ± 0.21 | 0.634 ± 0.0078 | 0.6989 ± 0.0024 | 0.642 ± 0.034 | 0.705 ± 0.017 | 0.6444 ± 0.0049 | 0.687 ± 0.029 | 0.696 ± 0.017 |
| TLKRCFRWCRTT | 0.176 ± 0.0047 | 0.492 ± 0.095 | 0.71 ± 0.05 | 0.672 ± 0.018 | 0.699 ± 0.0095 | 0.105 ± 0.0068 | 0.11 ± 0.011 | 0.157 ± 0.031 |
| TLSRTPVSPSAP | 0.7094 ± 0.0059 | 0.686 ± 0.051 | 0.738 ± 0.017 | 0.637 ± 0.018 | 0.706 ± 0.021 | 0.674 ± 0.032 | 0.6492 ± 0.0015 | 0.696 ± 0.022 |
